The DeepSol protein solubility set

Assay: soluble on expression in E. coli; label from the status in PepcDB or PDB records

Question: With “MSLADWQNLDPEAAREAEKYENPIPSRELILAHLSERGAPATRSQLLDEFGLAGEEPEEALRRRLRAMERDGQLIYTRRGAYAPVDKLDLIRGRISGHRDGFGFLIPDDGSDDLFLSPTQMRLVFDGDRALARVSGHDRRGRREGQLVEVIERAHEIVVGRYFEESGIGVVVADNPKIQQEVLIPPGKAGKARHNQFVQVRIEQWPSIHRQAQGEIVEVLGDYMAPGMEIEVALRSYDIPHVWPAAVEKEAAKLKPEVAEKDKEKRVDLRQVPFVTIDGEDARDFDDAVYAEAKRGGGWRLFVAIADVSHYVKVGSALDEEAARRGNSVYFPERVIPMLPEVLSNGLCSLNPLVDRLAMVCEMTLSKAGKLTGYQFYEAVIHSHARLTYTKVSQLLEHPDSVEAENLRQQLPGVVPHLQQLYALYKALLAGRHVRGAIDFETQETRIVFGADRKISEIRPTQRNDAHRLIEECMLCANVATARFLQKHAIPALYRVHDGPPQEKLNNLRQFLGELGLSLGRGKAAPTPGDYQELLEKIHDRADFRLIQTVMLRSLSQAVYSPDNNGHFGLNYDAYTHFTSPIRRYPDLLVHRAIRSVIRSKAETPHVQRAGAASMPKARIYPYDELRLDQLGEQCSMTERRADEATRDVTNWLKCEYMRERVGETFPGVITAVTGFGLFVELTDIFVEGLVHVTALPGDYYHFDAVHHRLSGERTGRSFRLGDTTEVVVARVDLDERKIDFELAGNVLSAPIGRKKRNGDKSANAGKAPKGRKGASVPEVDLEPALASPDAAVVPRRKAGKVQALPPVAPELLAQAAEMLGNTDVRKSREVKQALLAEARVGGKDKGGKKGKVVPAGKSAKGKAKDGKPAAAAKPGKPTKHRKGPSKPKADNAPAATGARKRKAKSEGHHHHHH” as the sequence, how does the “soluble on expression in E. coli” value read?
Answer: not soluble

Question: For “MSPPLAEERLTRIVQLLAERGTLRTAALTELLGVSSATIRRDLDVLAGRGLIRKLHGGAALAAPEPEAPLNQDQFYRDRQQVNHLGKQRLAGRALELIAPGQTLYLDAGTTALALAEALQRTPQLTRTLRVVTHGIDVAYVLNGECALYVVGGEVYGSTYSLTGPDALSTVSRYNYDLFFVSCTSIDPAGRLTNSNSVEAQQKASILRQSRRSVLIADQSKWGPPGFAPFAGFAEVSAWVTDRAPATARAAFEQAGVTVLEADASARELSADLEHHHHHH”, which “soluble on expression in E. coli” value is on record?
Answer: soluble

Question: For “MSLTDRTIGEAAELLGVTTRTLRHWDSIGLLQPSWRTTTDYRLYTEDDVERALQILIYRAAGIGLKDIAEVLDQPDSANQHLRRQRELLVEQIGQLHRMVRAVDEILGKDAISVKEKIEIFGEDLPKYQEEAFQRWGDTPEWKESQKIQEKMTKEDFQRAKDEHEGFVEKLIDASLRGIAPGSAEGNELALAHRASIGQWYTVSANKQVILARMYVEDERFNETYKGHASYLLTLIEALAQVEGVDLENEGHHHHHH”, which “soluble on expression in E. coli” value is on record?
Answer: not soluble

Question: With “EAEAISCGSPPPILNGRISYYSTPIAVGTVIRYSCSGTFRLIGEKSLLCITKDKVDGTWDKPAPKCQYFNKYSSCPEPIVPGGYKIRGSTPYRHGDSVTFACKTNFSMNGNKSVWCQANNMWGPTRLPTCVSVFPLEQKLIS” as the sequence, how does the “soluble on expression in E. coli” value read?
Answer: soluble

Question: For “MGSDKIHHHHHHMLDPRSVPFAAQIHPQARPARRLTWDSREAGPDTAFVALPGEKMHGNRFVERALAAGAPFVLTDLDVPRAVRVDDARGALFAWARSERAKNPLVVGITGSAGKTTAKSYAAAALDAHFMPVFNTMPAIACFLVQYGASQKPLVVEMGIDHIGEMAELMDLVRPDVGVVTTIGPAHLEQFGMVETIAHEKGQILTARRALVGSQAAAFFPKAQFPHVDSYGFGDVTFRGEGLELSPQAARFRFGGMGVILPLASRVQAEAAVLGMVLAREAGIALADAAVRMSAVEVPGGRYRLHPGRFTVIDDAYNASPVAVRAALDALHALKPEGEVGRRISVLGRMLELGPTERELHAEVGSYAREQADLTYGVGEFAQELGERAFATVPELLADLLNEVRDGDIVLVKASRGISLTPEQRAVTGVGLDVVVEALLDQRDR”, which “soluble on expression in E. coli” value is on record?
Answer: not soluble

Question: With “MGSDKIHHHHHHMPRQWNTDALSAGHLSCSSFFPFALTNKIIGRIKKKNNRMKGNNQLCTLLKLCLLSMLAFGTAKAQIQIVGAPSMKALDDSPNRLQVFMLHTLNPASVILRFAGAGTGKLYRYTTKAIEAEEVTTATYSDGMWTLTAPQLNCGYFVSGDGRLPQYYWISNYADYALFVSAVTGKPSETSPCISMDLAVDAAIRPIPYFQPNGIPRRLDRHVQISYPDMEWDAEARLFRPSTKEVEVEASDDERTLVVSASLADAVYTIHGDRFTKELSLPFTAVATDEILTPKVEVYAFVDKVDGGSAIGDNTPEEGDASLVSAPFTVMLAAYGNEPSAANFVWRIYRTEEGAENSVLVYNGTSTEFTFRQAGIYSILLQATNRTGTCTDEVLLENYFKVAESSLIVPNAFSPYGSPGVNDVFRVKHSSLVHFDGRIFDSWGKQIFRWTNPDEGWDGKYRGKMMPTGVYYYVIEAEGADGIKYKRKGDINILRPAYEIPLGGNLPR” as the sequence, how does the “soluble on expression in E. coli” value read?
Answer: not soluble

Question: For “MHITNRSHLADRYGKRTSAEFLLHERPILSFPISLAAIPKEARYLSWELIDYDTIPLIGFPFIHWLAANVPVTNEIPEDFSRTALKPTIQGKNSLASPLGKQMIPALATETLPELTERYLGLSPRSGVHTYTLYVYTTKNPLNLKEGFFANELHQALNDQLLAKAKFEFLY”, which “soluble on expression in E. coli” value is on record?
Answer: not soluble

Question: Which “soluble on expression in E. coli” value does the source give for “MSLKVLVTGGAGYVGTELVLKLAKDPSISKVVVFDNLSRENYNLFINSAQRIAKDKIQFEFGDLLDSRKIRKILADIDVVYHLAARVSTPFANADSHLYEQVNHWGTAELVYAIEEIKTVQKLIYVSSCSVYGSGKELIDENSVVNPKTIYGVSKMRGEEHVSRLGNKMNAVIIRLGNVYGYSSSMRFDAVINKFMFESHYKNRISIHGNGRQSRSFIHVDKAVDSLVKITSTDIPSGTYNLTERNLEIYDLIDQVKDLYPTLEFIFINQHLELREQKINPETKLLKYIPLQQTDFTAELAAFRDHFTFQTTSEGHHHHHH” here?
Answer: soluble

Question: For “MSQFISLTQYQLIEVQGADAEKYLQGQLTSDVVRLASGATTLTAHCDPKGKMNAIYRLFKVSSEQFFLLVKKDILPSGLDALKKYAVFSKVSFDLRDWQIIGVIGEKCGKITPNFSLEIDEKRSILLNETELPVNFNGDEKIWEVADIQAGLPNLSPQTQNEFIPQALNLQAIEQAISFTKGCYIGQETVARAKYRGANKRAMFIFKVQTQQEAEIGSEIEMQLEANWRKTGTITSAVNLDGVLWLQVVMNNDIDSEQQFRLLNSEILLERVQLPYSITELEHHHHHH”, which “soluble on expression in E. coli” value is on record?
Answer: soluble

Question: Which “soluble on expression in E. coli” value does the source give for “MAHHHHHHMGFFKKNKRQSFNRNYEGEVQCNNIILGGTFYKHCENDLLLKNELENLVPYFNGRIFLENKEEIGKVDEILGPINEFYFSVKLKEGIRAKSFSSDTHFFIDKSQTLPLSRFLPQEKNSQSLVKKKKKKSNRDKKKNSFNQNNKKPNNYNFKGNNNRNDHNNRNDHNNRNDHNNRNDHNNRNDRNNRNNKNSFRNRSNSSRKFNNQRGRF” here?
Answer: not soluble

Question: With “MGSDKIHHHHHHMYQKGVSTREIGHFIEKILGHSYSASTISQVTDVVTEDITQWQQRPLKKRYSVLYLDGTYLKLRREDVANEVVYLVVGVTEEGYREILGFYVGGQESANGWRNILLDLYSRGLEEVLLGVFDGLAGLEEAMKAVYPKADVQRCVVHKVRNALHAVRKKDQPAVAQDFKPIYQANTYEEAKNRFKEFKENWQKRYPKVVATWEKDLDVLLTFLSYPSTIRPMIYTTNIIERTMKEIKKRTKTMNSLPNEKAAEKIVYLQAIDYNERWATRRLRGFGEAYEALQEMFKQRYSGP” as the sequence, how does the “soluble on expression in E. coli” value read?
Answer: not soluble

Question: Which “soluble on expression in E. coli” value does the source give for “AHHHHHHGSGRDKKNTALLDIARDIGGDEAVEVVKALEKKGEATDEELAELTGVRVNTVRKILYALYDAKLATFRRVRDDETGWYYYYWRIDTKRLPEVIRTRKLQELEKLKQMLQEETSETYYHCGTPGHPKLTFDEAFEYGFQCPICGEILYEYDNSKIIEELKKRIEELEIELGLRSPPKEEKPKKATRRKKSRSGKKKK” here?
Answer: not soluble

Question: With “MKILPLALFIIPFLAGCGANNTPPQTPIPGEKTSAKLRTLETGAAAIQSRPPVDAISTYLDGFHFYSGDKNGQMEAHHYVTVLNEDVMQAVIYDGNTKNARLMGVEYIISERLFKTLPPEEKKLWHSHQYEVKSGSLVAPGLPQVADKALMSKIVNTYGKTWHTWHTDRDKTLPMGIPALMMGFTGDGQLDPALLADRDRRLGIDTQAIKRERQDLPEHPVVKGANAWEQGEVIQLQRVQGSGEHGRGDTAHFGTSEQSRQ” as the sequence, how does the “soluble on expression in E. coli” value read?
Answer: not soluble

Question: Which “soluble on expression in E. coli” value does the source give for “MGSDKIHHHHHHMFYQLYELNHAALQPARLYADAVRMFYSNPLNPIAHTHWGRSVAAGAELFERTTRRYGKPAFGLDKTVVDWKSVEVTEKTVWSKPFCNLVRFERAMPAGRKPDPKLLIVAPMSGHYATLLRGTVEAMLPYADVHITDWVDARMVPLVDGSFDLDDYIDYIIEMFHALGPDTHVMAVCQPSVPVLAAVALMEAKGDPFVPSTMTLMGGPIDTRRNPTAVNLLAEEKGIDWFRDNVVMRAPWPVPGFGREVYPGFLQLSGFMSMNLDRHIIAHKDFFMHLVKNDGDNAEKHRDFYDEYMAVMDLTAEFYLQTVDTVFVRHALPKGEMKHRGAAIDTSAIRNVALFTVEGENDDISGLGQTKAAQDLCINIPADKKAHYMQPAVGHYGVFNGSRFRSEIVPRIVDFITSYGRQNRVAVKPKLVRTAKR” here?
Answer: not soluble

Question: With “MGQDHIRYDILAQDALRGVIRKVLGEVAATGRLPGDHHFFITFLTGAPGVRISQHLKSKYAEQMTIVIQHQFWDMKVTETGFEIGLSFSDTPEKLVIPYNAIRGFYDPSVNFELEFDVPLAKEEEMEEAEITAYPVSHEAKPASETPKSGEEKKEGSVVSLDAFRKKQLEHHHHHH” as the sequence, how does the “soluble on expression in E. coli” value read?
Answer: soluble

Question: With “MGSDKIHHHHHHMTDLADLTCVGPGTPMGTLMRQYWVPAAKSSELKRDGDPMRLMLLGEKLIAFRDSEGRVGVLDHRCPHRCASLFLGRNEESGIRCVYHGWKFDVAGRCVDMPSVPPHQDFKDKVHAKAFRTAERNGLVWVYMGDAAEPPPLPAIEANLVADCEIWCLQRDCNWLQALEGDIDTSHVGFLHVGSLKPDDLADDHPMRPTVLDRAPEYAVTNTAWGTMYGGYRPNDDGQRSWRVAHFMFPFWTQTPNNRFSSRAIARAWVPMDDEHSMLFDITCGVDEGNPAYSSTRKTGEPLFAPFEYAPATTDWFGRWRCVDDRRNDWGIDRELQRNGSQYTGIPNITMQDQAVTESMGPIIDHSYEHLAPTDQMIARTRRRLLLATQALSEQGTLPPGAQDSDVFFGARAGSFLCDPGLPFETAYATQLETATRWAGDKVVS” as the sequence, how does the “soluble on expression in E. coli” value read?
Answer: not soluble

Question: With “MIITTSRKPSQRTRSLVNDLARVFNFKILNRGKIPLSELIENKDDMIIVEELKGNPGRLKIFNFENNKILSMNLSLKLQREVSGKAFKNSGKLGSKFDKNTEHLKEFFFEYLFKKLSNYKEENFEVVITFKTVDESTFYIEVHKGSENMGPSLKIKTVKILDIELEHHHHHH” as the sequence, how does the “soluble on expression in E. coli” value read?
Answer: not soluble

Question: For “MGSDKIHHHHHHMRKWISYPHREGTISRQAHADFPAEAIYEREVGRSGFFGPATHLHHKHPPTAWSAWEGPLRPRAYDLNELPHGTPAPWDAPLVLHNAQCKLRIWRCDQAMTQLSRNADGDDLLFIHGGSGELFCDYGHLSYRDGDYILVPRSTSWRIEPASPTTMLLIETSNGAYQLPEKGLVGPHAIFDEAVLDVPAIDDAFKAQQTEDEWQVVIKRRGALSTVTYPYNPLDAIGWHGNLSVARVNWRDIRPLMSHRYHLPPSAHTTFVADGFVICTFVPRPIESDPGALKVPFYHNNDDYDEVIFYHAGDFFSRDNIKPGMLTFHPAGFTHGPHPKAFAKAMTDPKTFTDEVAVMIDARDALEQGPGLAGVEWQGYVDSWKPKQA”, which “soluble on expression in E. coli” value is on record?
Answer: not soluble

Question: For “MSLKIKLIAVDLDGTLLTSRKKVSPKTLATLKKAREKGILVVPLSGRPLPGVLKVFEPFKLDPADNFAICYNGGLVQRMDGEVLSVSPLTDENVEHMLALKQTGIFGPYFMDTKDFYVAPKGSSFGVGFLAKARNMGVKRMVPGQHYEFIKGEFVSLPSKIKKFRAGFSPATEQEFEISASGGQCLEFNTPGTSKGQALTTLLDLLNIQPEEAMVFGDNNNDLSDFQLPGVFKVAMGNAIDEIKAAADYVTASNNQDGIALAVEKFVDMEGHHHHHH”, which “soluble on expression in E. coli” value is on record?
Answer: soluble
